# From PMC10873203
# Target: recombinant extracellular domain of human insulin receptor (human)
# Experiment: SDS-PAGE under non-reducing and reducing conditions (Coomassie); 0.5 µg ECD-IR in Laemmli buffer with or without 2.5% 2-mercaptoethanol, 80 °C 10 min
substance,measurement,value
recombinant extracellular domain of human insulin receptor,stoichiometry N,2
